The values below come from the supplement of paper PMC10126150.

± gives the standard deviation of the averaged measurements.
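Further: ATP exposure 15 min at 22 °C before imaging.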

For the data set, the system named is ATP. Description: switch fluorescence ratio, 500 uM ATP over buffer (Cy3 cluster intensity, sum of 5 cycles each) (fold (ratio)); higher = stronger signal-on switching upon ATP binding; sequences stand for … in TCGTCGGCAGCGTCAGATGTGTATAAGAGACAGTTTTTTTTTTTTTTTTTTTTTTTTT…TC. The following applies: aptamer strand: ATP DNA aptamer (quencher-CACCTGGGGGAGTATTGCGGAGGAAGG + anchor), 100 nM annealed; ATP concentration: 500 uM. In outline:
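Cy3-labelled switching-strand clusters on a modified Illumina MiSeq flow-cell were annealed to 100 nM quencher-labelled ATP aptamer, imaged in selection buffer, then imaged after 15 min with 500 uM ATP at 22 °C. Five buffer/ATP cycles ran, with NaOH stripping and re-annealing between them. The fluorescence ratio is summed target-cycle over summed buffer-cycle Cy3 intensity per cluster, averaged per switch-domain sequence. Clusters outside 100-1000 RFU were excluded.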
In the case of GGTCGTTGGT, the switch fluorescence ratio was 1.04 ± 0.022.

Take TCGTCTGTGG: the switch fluorescence ratio amounted to 0.974 ± 0.029.

CTGGTACAGA: the switch fluorescence ratio came to 0.97 ± 0.13.

As to TATGTGCTGT, the switch fluorescence ratio was found to be 0.983 ± 0.011.

For the sequence TTTGTATTTA, the switch fluorescence ratio was 1.03 ± 0.041.

In the case of CTAAATATGA, the switch fluorescence ratio was found to be 0.98 ± 0.035.

On to GAGTGCGGAT, for which the switch fluorescence ratio amounted to 0.98 ± 0.026.

As for CGTACTCTCA, the switch fluorescence ratio turned out to be 1.037 ± 0.006.

Turning to TTGTGTATTT, the switch fluorescence ratio was 1.001 ± 0.0098.

In the case of ACTACGTAAA, the switch fluorescence ratio amounted to 0.997 ± 0.046.

On to CGTTTAATCA, for which the switch fluorescence ratio turned out to be 0.982 ± 0.018.

For AACCGGGGAC, the switch fluorescence ratio was 1.31 ± 0.23.

In the case of ATGGTGAATT, the switch fluorescence ratio came to 1.016 ± 0.0044.

As for TTTAATGTGG, the switch fluorescence ratio is 0.999 ± 0.03.

Regarding CGGTTCGTTA, the switch fluorescence ratio is 0.9795 ± 0.004.

Consider GTGGTGGGTT, for which the switch fluorescence ratio turned out to be 0.975 ± 0.018.

With ATTTTAGAAC, the switch fluorescence ratio came to 1.013 ± 0.0031.

In the case of GAGAGAAAAT, the switch fluorescence ratio is 1.49 ± 0.63.

Consider CATAGCGATA, for which the switch fluorescence ratio was determined as 3.48 ± 0.28.

As to GTTTCATATG, the switch fluorescence ratio turned out to be 1.03 ± 0.047.

Take GTGCGTTTGG: the switch fluorescence ratio came to 0.971 ± 0.022.

As to AGGGGCAGGA, the switch fluorescence ratio was 0.941 ± 0.06.

With GCAAAAGGGC, the switch fluorescence ratio was 1.02 ± 0.014.

With TTATACGCTT, the switch fluorescence ratio stood at 1.1 ± 0.017.

On to TAAAAGTATT, for which the switch fluorescence ratio is 1.03 ± 0.068.

Consider CGCTAGGTGT, for which the switch fluorescence ratio was 2.33 ± 0.76.

As to TTTTTCAGGA, the switch fluorescence ratio was 0.975 ± 0.024.

Consider ATGGCTTAGC, for which the switch fluorescence ratio is 0.983 ± 0.015.

On to CGAGTACTGT, for which the switch fluorescence ratio came to 0.994 ± 0.025.

Regarding AGATAATTTG, the switch fluorescence ratio came out at 0.99459 ± 0.00061.

For AAGTTTAGCA, the switch fluorescence ratio came to 1.01 ± 0.021.

TGCATGTCTT: the switch fluorescence ratio stood at 0.998 ± 0.033.

Take TGACTGAAAA: the switch fluorescence ratio stood at 1.009 ± 0.007.

In the case of TTAAAGTAGT, the switch fluorescence ratio was determined as 1.19 ± 0.32.

Regarding CGTTCGGGGG, the switch fluorescence ratio was determined as 1.01 ± 0.083.

Turning to TGGGTATATT, the switch fluorescence ratio was determined as 0.987 ± 0.011.

TGGGGATTGT: the switch fluorescence ratio came to 0.968 ± 0.023.

GCGGTGTTTT: the switch fluorescence ratio was 1.03 ± 0.05.

Consider TCTAGGGCGC, for which the switch fluorescence ratio is 1.01 ± 0.053.

For the sequence GAGGTTATAG, the switch fluorescence ratio came to 0.998 ± 0.02.

As for ACCGATCTCA, the switch fluorescence ratio came to 1.048 ± 0.0089.

In the case of GCGCAGACTT, the switch fluorescence ratio was 1.15 ± 0.034.

Turning to GAAATGTAGG, the switch fluorescence ratio amounted to 0.995 ± 0.034.

As for TCGGCATGAT, the switch fluorescence ratio was found to be 0.998 ± 0.011.

On to TCGGGTTCTT, for which the switch fluorescence ratio is 1.02 ± 0.027.

In the case of ATATCGAGGC, the switch fluorescence ratio worked out at 0.9803 ± 0.0089.

As to TAGTTAGGCA, the switch fluorescence ratio was 0.9819 ± 0.0053.

As for CGCATAGCTT, the switch fluorescence ratio worked out at 1.12 ± 0.021.

With GTTTTAATGG, the switch fluorescence ratio is 1.01 ± 0.025.

Take ATGGAACGGA: the switch fluorescence ratio is 1.03 ± 0.027.

Take ATTTTTGCGC: the switch fluorescence ratio was 1.03 ± 0.055.

TAGGGTTTGG: the switch fluorescence ratio is 0.992 ± 0.014.

For AAAGAGGGG, the switch fluorescence ratio was 0.98 ± 0.029.

With TTAAGTGTAG, the switch fluorescence ratio amounted to 1 ± 0.021.

TTTGCGGACC: the switch fluorescence ratio stood at 1.05 ± 0.025.

As for GAATTTGTTG, the switch fluorescence ratio was found to be 1.001 ± 0.0063.

For TGCTATATGG, the switch fluorescence ratio was 0.994 ± 0.022.

For AGGGCAAGAG, the switch fluorescence ratio is 1.38 ± 0.054.

CGATCCTATG: the switch fluorescence ratio was found to be 0.969 ± 0.045.

TCATGGCGCA: the switch fluorescence ratio worked out at 1.07 ± 0.013.

For GTAATCGGCA, the switch fluorescence ratio came out at 1.02 ± 0.022.

In the case of TAGGTATTCA, the switch fluorescence ratio turned out to be 0.9988 ± 0.0046.

In the case of TCGGGAACAG, the switch fluorescence ratio worked out at 1.02 ± 0.035.

Turning to ACTGGTGCAT, the switch fluorescence ratio came out at 1.04 ± 0.019.

As to GATCAGTGTT, the switch fluorescence ratio was 0.9783 ± 0.0093.

As to AAGGATTATA, the switch fluorescence ratio amounted to 0.985 ± 0.061.

For AGGTGCTGGT, the switch fluorescence ratio was found to be 0.997 ± 0.033.

On to AAAATGGCAG, for which the switch fluorescence ratio is 1.004 ± 0.0089.

For TAAGCGTCTG, the switch fluorescence ratio is 1.013 ± 0.0057.

As to GGGACGTGTG, the switch fluorescence ratio turned out to be 1.007 ± 0.0068.

For the sequence TTAGAGGGGT, the switch fluorescence ratio turned out to be 0.992 ± 0.03.

Regarding TGTTATTAGT, the switch fluorescence ratio was 1.01 ± 0.022.

On to ACGAAATAGG, for which the switch fluorescence ratio is 1.07 ± 0.035.

Take CCAAGTTGCC: the switch fluorescence ratio came to 0.9929 ± 0.0092.

In the case of GTTCGACTGT, the switch fluorescence ratio worked out at 1.024 ± 0.0042.

GGATCCATTC: the switch fluorescence ratio was found to be 0.972 ± 0.019.

Take CAACGTTTTG: the switch fluorescence ratio stood at 0.977 ± 0.023.

In the case of GGGGGGTCT, the switch fluorescence ratio stood at 1.09 ± 0.051.

For TCTGGTTGTA, the switch fluorescence ratio was 0.995 ± 0.051.
